# According to patent publication US20190177704A1, “MODIFIED LUCIFERASE” (RIKEN, priority 2016, published 2019):
# Experiments:
# Format in all cases: cell-based
# [1] = Emission intensity of luciferase-expressing HeLa S3 cells with AkaLumine; details: for relative emission intensity, AKA: emission intensity of D-luciferin defined as 1; for relative emission intensity, AKA / AkaLumine emission intensity, relative value: HeLa S3 cells; for AkaLumine emission intensity, relative value: relative to 1.0 = emission intensity of luc2 with AkaLumine, 80 μM substrate, integrated over one minute
# Protocol: (§1) A plasmid pcDNA3 was treated with use of BamHI and EcoRI, and genes encoding the respective luciferases above were each inserted into the plasmid pcDNA3 to produce plasmids for transfection.
# (§2) HeLa S3 cells were used as mammalian cells to be transfected. For each of the luciferases above, HeLa S3 cells which had been cultured in D-MEM (low glucose, containing 10% FBS and 1% penicillin streptomycin, Wako Pure Chemical Industries, Ltd.) and were in an 80% confluent state were mixed with a transfection reagent (Polyethylenimine, Linear (MW 25,000, Polysciences, Inc)) and the plasmid for transfection (0.3 μg) to conduct transfection.
# (§3) 24 hours after the transfection, the cells were dissociated through trypsinization, and were suspended in DMEM/F12 (10% FBS, gibco). Subsequently, centrifugation was conducted to remove the supernatant, and then the cells were resuspended in 1 mL DMEM/F12 so as to be used as luciferase-expressing cells.
# (§4) In 1.5 mL Eppendorf tube, 20 μL of the produced luciferase-expressing cells and 80 μL of a substrate solution (prepared with pH 7.4 PBS) were mixed, and light emission from the obtained mixture was measured for one minute (with use of a luminometer AB-2280 manufactured by ATTO Corporation). An integrated value of the values thus measured within one minute was defined as the emission intensity.
# (§5) As the substrate solution, AkaLumine or D-luciferin (80 μM each) was added. Results of the measurement of emission intensity are shown below in Table 2 as relative values with respect to 1.0 which is an emission intensity obtained in a case where AkaLumine was added to a sample of luc2.
# (§6) Subsequently, with use of D-luciferin, AkaLumine, AkaLumine-OH, 6-AkaLumine, 0-AkaLumine, monoene NMe2, monoene NH2, monoene OH, and biphenyl as substrates, specificity to each of these substrates was evaluated. The substrates are respectively represented by the following chemical formulae. Each substrate solution contains a single kind of substrate.
# (§7) Tables 3 through 8 show results of relative emission intensities in a case where the emission intensity of D-luciferin is defined as 1.
# [2] = Emission intensity of luciferase-expressing HeLa S3 cells with D-luciferin; details: for relative emission intensity, Dluc: emission intensity of D-luciferin defined as 1; for D-luciferin emission intensity, relative value: relative to 1.0 = emission intensity of luc2 with AkaLumine, 80 μM substrate, integrated over one minute
# Protocol: as §1, §2, §3, §4, §5, §6, §7
# [3] = Emission intensity of luciferase-expressing HeLa S3 cells with AkaLumine-OH; details: emission intensity of D-luciferin defined as 1
# Protocol: as §1, §2, §3, §4, §6, §7
# [4] = Emission intensity of luciferase-expressing HeLa S3 cells with 6-AkaLumine; details: emission intensity of D-luciferin defined as 1
# Protocol: as §1, §2, §3, §4, §6, §7
# [5] = Emission intensity of luciferase-expressing HeLa S3 cells with monoene NH2; details: emission intensity of D-luciferin defined as 1
# Protocol: as §1, §2, §3, §4, §6, §7
# [6] = Emission intensity of luciferase-expressing HeLa S3 cells with monoene OH; details: emission intensity of D-luciferin defined as 1
# Protocol: as §1, §2, §3, §4, §6, §7
# [7] = Emission intensity of luciferase-expressing HeLa S3 cells with biphenyl; details: emission intensity of D-luciferin defined as 1
# Protocol: as §1, §2, §3, §4, §6, §7
# [8] = Emission intensity of luciferase-expressing HeLa S3 cells with monoene NMe2; details: emission intensity of D-luciferin defined as 1
# Protocol: as §1, §2, §3, §4, §6, §7
# [9] = Emission intensity of luciferase-expressing HeLa S3 cells with 0-AkaLumine; details: emission intensity of D-luciferin defined as 1
# Protocol: as §1, §2, §3, §4, §6, §7
Molecule,"relative emission intensity, AKA [1]","AkaLumine emission intensity, relative value [1]","relative emission intensity, Dluc [2]","D-luciferin emission intensity, relative value [2]","relative emission intensity, AKA-OH [3]","relative emission intensity, 6-AKA [4]","relative emission intensity, monoNH2 [5]","relative emission intensity, monoOH [6]","relative emission intensity, biph [7]","AkaLumine/D-luciferin ([1]; ratio of relative emission intensities, Table 2)","relative emission intensity, monoNMe2 [8]","relative emission intensity, O-AKA [9]"
"Variant b: luc2 variant with the mutations of column b in Table 1 (SEQ ID NO: 5) (protein, Modified Luciferase) MEDAKNIKKGPAPFYPLEDGTAGEQLHKAMKRYALVPGAIAFTDAHIQVDVTYAEYFEMSVRLAEAMRRYGLNTNHRIVVCSENSLQFFMPVLGALFIGVAVAPANDIYNERELLNSMGISQPTVVFVSKKGLRKVLDVQKKLPIIRKIIIMDSKTDYQGFQSMYTFVASHLPPSFNEYDFVPECFDRDKTIALIMNSSGSTGLPKGVALPHRTACVRFSHARDPIFGYQNIPDTAILSVVPFHHGFGMFTTLGYLICGFRVVFMYRFEEELFLRSLQDYKIQSALLVPTLFSCLAKSTLIDKYDLSSLREIASGGAPLSKEVGEAVAKRFRLPGIRQGYGLTETTNAVMITPEGDRKPGSVGKVVPFFEAKVVDLVTGKTLGVNQRGELCVRGPMIMSGYVNNPEATNALIDKDGWLHSGDIAYWDEDEHFFIVDRLKSLIKYKGYQVAPAELEGILLQHPYIFDAGVAGLPDDDAGELPAAVVVLEHGKTMTEKEIVDYVASQVTTAKKLRGGVVFVDEVPRGPTGKLDARKIREILTKAKKDGKIAV",2.4 × 10^3,2.4,1.0,not detected,0.9,8.1 × 10^2,1.2 × 10^−1,1.5 × 10^−2,3.1,,,
"Variant c: luc2 variant with the mutations of column c in Table 1 (SEQ ID NO: 6) (protein, Modified Luciferase) MEDAKNIKKGPAPFYPLEDGTAGEQLHKAMKRYALVPGAIAFTDAHIQVDVTYAEYFEMSVRLAEAMRRYGLNTNHRIVVCSENSSQFFMPVLGALFIGVAVAPANDIYNERELLNSMGISQPTVVFVSKKGLRKVLNVQKKLPIIRKIIIMDSKTDYQGFQSMYTFVTSHLPPSFNEYDFVPESFDRDKTIALIMNSSGSTGLPKGVALPHRTACVRFSHARDPIFGYQNIPDTAILSVVPFHHGFGMFTTLGYLICGFRVVLMYRFEEELFLRSLQDYKIQSALLVPTLFSCLAKSTLIDKYDLSSLREIASGGAPLSKEVGEAVAKRFRLPGIRQGYGLTETTNAVMITPEGDRKPGSVGKVVPFFEAKVVDLVTGKTLGVNQRGELCVRGPMIMSGYVNNPEATNALIDKDGWLHSGDIAYWDEDEHFFIVDRLKSLIKYKGYQVAPAELEGILLQHPYIFDAGVAGLPDDDAGELPAAVVVLEHGKTMTEKEIVDYVASQVTTAKKLRGGVVFVDEVPRGSTGKLDARKIREILTKAKKDGKIAV",9.0 × 10^3,6.8,1.0,not detected,1.8,1.8 × 10^3,1.8 × 10^−1,1.1 × 10^−1,4.1,,,
"Variant d: luc2 variant with the mutations of column d in Table 1 (SEQ ID NO: 7) (protein, Modified Luciferase) MEDAKNIKKGPAPFYPLEDGTAGEQLHKAMKRYALVPGAIAFTDAHIQVDVTYAEYFEMSVRLAEAMRRYGLNTNHRIVVCSENSSQFFMPVLGALFIGVAVAPANDIYNERELLNSMGISQPTVVFVSKKGLRKVLNVQKKLPIIRKIIIMDSKTDYQGFQSMYTFVTSHLPPSFNEYDFVPECFDRDKTIALIMNSSGSTGLPKGVALPHRTACVRFSHARDPIFGYQNIPDTAILSVVPFHHGFGMFTTLGYLICGFRVVLMYRFEEELFLRSLQDYKIQSALLVPAPFSCLAKSTLIDKYDLSSLREIASGGAPLSKEVGEAVAKRFRLPGIRQGYGLTETTNAVMITPEGDRKPGSVGKVVPFFEAKVVDLVTGKTLGVNQRGELCVRGPMIMSGYVNNPEATNALIDKDGWLHSGDIAYWDEDEHFFIVDRLKSLIKYKGYQVAPAELEGILLQHPYIFDAGVAGLPDDDAGELPAAVVVLEHGKTMTEKEIVDYVASQVTTAKKLRGGVVFVDEVPRGPTGKLDARKIREILTKAKKDGKIAV",3.4 × 10^3,6.1,1.0,1.8 × 10^−3,9.8 × 10^−1,1.5 × 10^3,1.3 × 10^−1,7.1 × 10^−2,7.5,3.4 × 10^3,6.6,
"N229Y_S347N: luc2 variant with N229Y and S347N mutations (SEQ ID NO: 2) (protein, Modified Luciferase) MEDAKNIKKGPAPFYPLEDGTAGEQLHKAMKRYALVPGTIAFTDAHIEVDITYAEYFEMSVRLAEAMKRYGLNTNHRIVVCSENSLQFFMPVLGALFIGVAVAPANDIYNERELLNSMGISQPTVVFVSKKGLQKILNVQKKLPIIQKIIIMDSKTDYQGFQSMYTFVTSHLPPGFNEYDFVPESFDRDKTIALIMNSSGSTGLPKGVALPHRTACVRFSHARDPIFGYQIIPDTAILSVVPFHHGFGMFTTLGYLICGFRVVLMYRFEEELFLRSLQDYKIQSALLVPTLFSFFAKSTLIDKYDLSNLHEIASGGAPLSKEVGEAVAKRFHLPGIRQGYGLTETTNAILITPEGDDKPGAVGKVVPFFEAKVVDLDTGKTLGVNQRGELCVRGPMIMSGYVNNPEATNALIDKDGWLHSGDIAYWDEDEHFFIVDRLKSLIKYKGYQVAPAELESILLQHPNIFDAGVAGLPDDDAGELPAAVVVLEHGKTMTEKEIVDYVASQVTTAKKLRGGVVFVDEVPKGLTGKLDARKIREILIKAKKGGKIAV",6.4 × 10^3,,1.0,,2.1,9.6 × 10^2,1.7,1.4 × 10^−2,6.9,,2.4 × 10^2,
"N229Y_H310Q_S347N: luc2 variant with N229Y, H310Q and S347N mutations (SEQ ID NO: 4) (protein, Modified Luciferase) MEDAKNIKKGPAPFYPLEDGTAGEQLHKAMKRYALVPGTIAFTDAHIEVDITYAEYFEMSVRLAEAMKRYGLNTNHRIVVCSENSLQFFMPVLGALFIGVAVAPANDIYNERELLNSMGISQPTVVFVSKKGLQKILNVQKKLPIIQKIIIMDSKTDYQGFQSMYTFVTSHLPPGFNEYDFVPESFDRDKTIALIMNSSGSTGLPKGVALPHRTACVRFSHARDPIFGYQIIPDTAILSVVPFHHGFGMFTTLGYLICGFRVVLMYRFEEELFLRSLQDYKIQSALLVPTLFSFFAKSTLIDKYDLSNLQEIASGGAPLSKEVGEAVAKRFHLPGIRQGYGLTETTNAILITPEGDDKPGAVGKVVPFFEAKVVDLDTGKTLGVNQRGELCVRGPMIMSGYVNNPEATNALIDKDGWLHSGDIAYWDEDEHFFIVDRLKSLIKYKGYQVAPAELESILLQHPNIFDAGVAGLPDDDAGELPAAVVVLEHGKTMTEKEIVDYVASQVTTAKKLRGGVVFVDEVPKGLTGKLDARKIREILIKAKKGGKIAV",4.1 × 10^3,,1.0,,1.4,1.1 × 10^3,7.3 × 10^−1,1.3 × 10^−1,,,,2.1 × 10^−3
